Reference: ChEMBL document CHEMBL1629679, “Extended-spectrum cephalosporinases in Pseudomonas aeruginosa” (2009)

Tests used:
[1] = substrate: CC(C)(O/N=C(\C(=O)N[C@@H]1C(=O)N2C(C(=O)[O-])=C(C[n+]3ccccc3)CS[C@H]12)c1csc(N)n1)C(=O)O; assay: (§1) Activity at Pseudomonas aeruginosa PDC-5 by spectrophotometer
[2] = substrate: CC1(C)S[C@@H]2[C@H](NC(=O)Cc3ccccc3)C(=O)N2[C@H]1C(=O)O; assay: as §1
[3] = substrate: CCN1CCN(C(=O)N[C@@H](C(=O)N[C@@H]2C(=O)N3[C@@H]2SC(C)(C)[C@@H]3C(=O)O)c2ccccc2)C(=O)C1=O; assay: as §1
[4] = substrate: CO/N=C(\C(=O)N[C@@H]1C(=O)N2C(C(=O)O)=C(COC(C)=O)CS[C@H]12)c1csc(N)n1; assay: as §1
[5] = substrate: CO/N=C(\C(=O)N[C@@H]1C(=O)N2C(C(=O)[O-])=C(C[N+]3(C)CCCC3)CS[C@H]12)c1csc(N)n1; assay: as §1
[6] = substrate: C[C@@H](O)[C@H]1C(=O)N2C(C(=O)O)=C(SCCNC=N)C[C@H]12; assay: as §1
[7] = substrate: CC(C)(O/N=C(\C(=O)N[C@@H]1C(=O)N2C(C(=O)[O-])=C(C[n+]3ccccc3)CS[C@H]12)c1csc(N)n1)C(=O)O; assay: (§2) Ratio of Kcat to Km for Pseudomonas aeruginosa PDC-5 by spectrophotometer
[8] = substrate: CC1(C)S[C@@H]2[C@H](NC(=O)Cc3ccccc3)C(=O)N2[C@H]1C(=O)O; assay: as §2
[9] = substrate: CCN1CCN(C(=O)N[C@@H](C(=O)N[C@@H]2C(=O)N3[C@@H]2SC(C)(C)[C@@H]3C(=O)O)c2ccccc2)C(=O)C1=O; assay: as §2
[10] = substrate: CO/N=C(\C(=O)N[C@@H]1C(=O)N2C(C(=O)O)=C(COC(C)=O)CS[C@H]12)c1csc(N)n1; assay: as §2
[11] = substrate: C[C@@H](O)[C@H]1C(=O)N2C(C(=O)O)=C(SCCNC=N)C[C@H]12; assay: as §2
[12] = substrate: CC(C)(O/N=C(\C(=O)N[C@@H]1C(=O)N2C(C(=O)[O-])=C(C[n+]3ccccc3)CS[C@H]12)c1csc(N)n1)C(=O)O; assay: (§3) Activity at Pseudomonas aeruginosa PDC-1 by spectrophotometer
[13] = substrate: CC1(C)S[C@@H]2[C@H](NC(=O)Cc3ccccc3)C(=O)N2[C@H]1C(=O)O; assay: as §3
[14] = substrate: CCN1CCN(C(=O)N[C@@H](C(=O)N[C@@H]2C(=O)N3[C@@H]2SC(C)(C)[C@@H]3C(=O)O)c2ccccc2)C(=O)C1=O; assay: as §3
[15] = substrate: CO/N=C(\C(=O)N[C@@H]1C(=O)N2C(C(=O)O)=C(COC(C)=O)CS[C@H]12)c1csc(N)n1; assay: as §3
[16] = substrate: CO/N=C(\C(=O)N[C@@H]1C(=O)N2C(C(=O)[O-])=C(C[N+]3(C)CCCC3)CS[C@H]12)c1csc(N)n1; assay: as §3
[17] = substrate: C[C@@H](O)[C@H]1C(=O)N2C(C(=O)O)=C(SCCNC=N)C[C@H]12; assay: as §3
[18] = substrate: CC(C)(O/N=C(\C(=O)N[C@@H]1C(=O)N2C(C(=O)[O-])=C(C[n+]3ccccc3)CS[C@H]12)c1csc(N)n1)C(=O)O; assay: (§4) Ratio of Kcat to Km for Pseudomonas aeruginosa PDC-1 by spectrophotometer
[19] = substrate: CC1(C)S[C@@H]2[C@H](NC(=O)Cc3ccccc3)C(=O)N2[C@H]1C(=O)O; assay: as §4
[20] = substrate: CCN1CCN(C(=O)N[C@@H](C(=O)N[C@@H]2C(=O)N3[C@@H]2SC(C)(C)[C@@H]3C(=O)O)c2ccccc2)C(=O)C1=O; assay: as §4
[21] = substrate: CO/N=C(\C(=O)N[C@@H]1C(=O)N2C(C(=O)O)=C(COC(C)=O)CS[C@H]12)c1csc(N)n1; assay: as §4
[22] = substrate: CO/N=C(\C(=O)N[C@@H]1C(=O)N2C(C(=O)[O-])=C(C[N+]3(C)CCCC3)CS[C@H]12)c1csc(N)n1; assay: as §4
[23] = substrate: C[C@@H](O)[C@H]1C(=O)N2C(C(=O)O)=C(SCCNC=N)C[C@H]12; assay: as §4

B1: Beta-lactamase (Pseudomonas aeruginosa), Q8RL90 (protein)
chain: MRDTRFPCLCGIAASTLLFATTPAIAGEAPADRLKALVDAAVQPVMKANDIPGLAVAISLKGEPHYFSYGLASKEDGRQVTPETLFEIGSVSKTFTATLAGYALAQDKMRLDDRASQHWPALQGSRFDGISLLDLATYTAGGLPLQFPDSVQKDQAQIRDYYRQWQPTYAPGSQRLYSNPSIGLFGYLAARSLGQPFERLMEQQVFPALGLEQTHLDVPEAALAQYAQGYGKDDRPLRVGPGPLDAEGYGVKTSAADLLRFVDANLHPERLDRPWAQALDATHRGYYKVGDMTQGLGWEAYDWPISLKRLQAGNSTPMALQPHRIARLPAPQALEGQRLLNKTGSTNGFGAYVAFVPGRDLGLVILANRNYPNAERVKIAYAILSGLEQQGKVPLKR
Question: With B1 as the protein, how does the Km [1] read?
Answer: 30 µM

Question: And the kcat [1]?
Answer: 0.015 s⁻¹

Question: And the Km [2]?
Answer: 35 µM

Question: And the kcat [2]?
Answer: 30 s⁻¹

Question: And the Km [3]?
Answer: 40 µM

Question: What about the kcat [3] of the same protein?
Answer: 5 s⁻¹

Question: And the Km [4]?
Answer: 5 µM

Question: And the kcat [4]?
Answer: 0.1 s⁻¹

Question: What about the Km [5] of the same protein?
Answer: 1700 µM

Question: And the Km [6]?
Answer: 15 µM

Question: And the kcat [6]?
Answer: 0.1 s⁻¹

Question: And the kcat/Km [7]?
Answer: 500000 M⁻¹ s⁻¹

Question: And the kcat/Km [8]?
Answer: 860000 M⁻¹ s⁻¹

Question: And the kcat/Km [9]?
Answer: 125000 M⁻¹ s⁻¹

Question: And the kcat/Km [10]?
Answer: 20000 M⁻¹ s⁻¹

Question: And the kcat/Km [11]?
Answer: 6e+06 M⁻¹ s⁻¹

B2: Beta-lactamase (Pseudomonas aeruginosa (strain ATCC 15692 / PAO1 / 1C / PRS 101 / LMG12228)), P24735 (protein)
chain: MRDTRFPCLCGIAASTLLFATTPAIAGEAPADRLKALVDAAVQPVMKANDIPGLAVAISLKGEPHYFSYGLASKEDGRRVTPETLFEIGSVSKTFTATLAGYALTQDKMRLDDRASQHWPALQGSRFDGISLLDLATYTAGGLPLQFPDSVQKDQAQIRDYYRQWQPTYAPGSQRLYSNPSIGLFGYLAARSLGQPFERLMEQQVFPALGLEQTHLDVPEAALAQYAQGYGKDDRPLRVGPGPLDAEGYGVKTSAADLLRFVDANLHPERLDRPWAQALDATHRGYYKVGDMTQGLGWEAYDWPISLKRLQAGNSTPMALQPHRIARLPAPQALEGQRLLNKTGSTNGFGAYVAFVPGRDLGLVILANRNYPNAERVKIAYAILSGLEQQGKVPLKR
Question: Which results are given for B2?
Answer: kcat [12]: 0.004 s⁻¹; Km [13]: 35 µM; Km [14]: 100 µM; kcat [14]: 2 s⁻¹; Km [15]: 6 µM; kcat [15]: 0.02 s⁻¹; Km [16]: 800 µM; kcat [16]: 0.08 s⁻¹; Km [17]: 20 µM; kcat [17]: 0.01 s⁻¹; kcat/Km [18]: 200000 M⁻¹ s⁻¹; kcat/Km [19]: 430000 M⁻¹ s⁻¹; kcat/Km [20]: 50000 M⁻¹ s⁻¹; kcat/Km [21]: 3000 M⁻¹ s⁻¹; kcat/Km [22]: 100000 M⁻¹ s⁻¹; kcat/Km [23]: 500000 M⁻¹ s⁻¹
